Measured values from paper PMC3338918 (Angiogenesis, 2012).

T1: hVEGFR3-hFc (human, UniProt P35916 25-775)
T1 construct: human VEGFR3; source: bought: R&D Systems
T1 sequence (looked up): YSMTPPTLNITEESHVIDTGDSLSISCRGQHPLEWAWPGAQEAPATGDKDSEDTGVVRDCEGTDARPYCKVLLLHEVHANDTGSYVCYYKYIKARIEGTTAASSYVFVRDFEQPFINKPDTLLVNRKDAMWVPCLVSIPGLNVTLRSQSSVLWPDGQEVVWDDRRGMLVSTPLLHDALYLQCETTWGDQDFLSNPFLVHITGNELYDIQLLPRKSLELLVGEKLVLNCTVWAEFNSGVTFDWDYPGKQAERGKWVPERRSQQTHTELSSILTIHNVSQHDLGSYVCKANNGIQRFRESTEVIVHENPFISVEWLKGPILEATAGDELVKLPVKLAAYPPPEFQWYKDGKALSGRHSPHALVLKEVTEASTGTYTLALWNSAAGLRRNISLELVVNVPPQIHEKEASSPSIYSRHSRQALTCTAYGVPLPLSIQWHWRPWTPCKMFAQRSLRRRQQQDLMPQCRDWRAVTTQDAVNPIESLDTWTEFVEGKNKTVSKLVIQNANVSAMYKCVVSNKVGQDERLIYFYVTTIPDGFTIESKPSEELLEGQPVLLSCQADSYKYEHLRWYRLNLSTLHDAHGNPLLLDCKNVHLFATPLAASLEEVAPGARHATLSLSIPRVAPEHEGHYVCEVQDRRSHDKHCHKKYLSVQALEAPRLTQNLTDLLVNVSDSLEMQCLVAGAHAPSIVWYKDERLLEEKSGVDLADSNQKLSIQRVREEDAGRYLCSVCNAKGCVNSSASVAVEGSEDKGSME


Target: T1, hVEGFR3-hFc
Experiment: SPR; Biacore 3000, CM5 chip, 25°C, HBS-T (10 mM Hepes, 150 mM NaCl, 3.4 mM EDTA, 0.05% polysorbate 20, pH 7.4); VEGF Trap or receptor-Fc captured at low density on amine-coupled Protein A, ligands injected (1.0–0.062 nM VEGF-A, 2.5–0.156 nM VEGF-B(10-108), 5.0–0.078 nM PlGF); kd of VEGF-A ligands by the 'fixed kd' procedure on a Biacore 2000 (~2–3 h); KD = kd/ka
Details: both partners purified

binding result	Binder
binds	human VEGF-C (ligand, UniProt P49767 112-227, looked up, human VEGF-C; source: bought: R&D Systems) AHYNTEILKSIDNEWRKTQCMPREVCIDVGKEFGVATNTFFKPPCVSVYRCGGCCNSEGLQCMNTSTSYLSKTLFEITVPLSQGPKPVTISFANHTSCRCMSKLDVYRQVHSIIRR
binds	human VEGF-D (ligand, UniProt O43915 89-205, looked up, human VEGF-D; source: bought: R&D Systems) FAATFYDIETLKVIDEEWQRTQCSPRETCVEVASELGKSTNTFFKPPCVNVFRCGGCCNEESLICMNTSTSYISKQLFEISVPLTSVPELVPVKVANHTGCKCLPTAPRHPYSIIRR
